In one experiment the target is T1, mouse LIV-1 (mouse) (UniProt Q8C145).
T1 sequence (looked up): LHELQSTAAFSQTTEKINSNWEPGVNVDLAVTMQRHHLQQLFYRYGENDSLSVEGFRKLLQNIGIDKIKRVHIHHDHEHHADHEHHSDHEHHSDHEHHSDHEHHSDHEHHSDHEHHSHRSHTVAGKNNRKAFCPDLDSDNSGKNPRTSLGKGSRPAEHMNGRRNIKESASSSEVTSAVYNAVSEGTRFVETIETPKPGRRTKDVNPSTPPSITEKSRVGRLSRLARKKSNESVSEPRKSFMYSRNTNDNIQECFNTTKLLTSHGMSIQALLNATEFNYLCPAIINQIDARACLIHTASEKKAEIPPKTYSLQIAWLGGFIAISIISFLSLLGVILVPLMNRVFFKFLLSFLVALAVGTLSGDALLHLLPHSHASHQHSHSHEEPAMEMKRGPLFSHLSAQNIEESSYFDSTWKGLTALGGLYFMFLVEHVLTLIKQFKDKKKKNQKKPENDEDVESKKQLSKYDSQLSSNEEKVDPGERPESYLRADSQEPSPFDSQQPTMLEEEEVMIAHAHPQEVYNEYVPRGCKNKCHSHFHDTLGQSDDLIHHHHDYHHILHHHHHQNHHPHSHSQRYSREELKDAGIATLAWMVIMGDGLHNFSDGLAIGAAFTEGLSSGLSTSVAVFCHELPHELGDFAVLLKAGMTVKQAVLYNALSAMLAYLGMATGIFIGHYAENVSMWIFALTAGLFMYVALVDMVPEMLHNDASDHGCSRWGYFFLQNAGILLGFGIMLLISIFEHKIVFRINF
The experiment can be described thus: FACS, HEK293/Mouse_LIV-1 cells. On the technique in general: In flow cytometry, cells or beads pass a laser one at a time.

Another experiment concerns the target T2, rat LIV-1 (rat) (UniProt Q4V887).
T2 sequence (looked up): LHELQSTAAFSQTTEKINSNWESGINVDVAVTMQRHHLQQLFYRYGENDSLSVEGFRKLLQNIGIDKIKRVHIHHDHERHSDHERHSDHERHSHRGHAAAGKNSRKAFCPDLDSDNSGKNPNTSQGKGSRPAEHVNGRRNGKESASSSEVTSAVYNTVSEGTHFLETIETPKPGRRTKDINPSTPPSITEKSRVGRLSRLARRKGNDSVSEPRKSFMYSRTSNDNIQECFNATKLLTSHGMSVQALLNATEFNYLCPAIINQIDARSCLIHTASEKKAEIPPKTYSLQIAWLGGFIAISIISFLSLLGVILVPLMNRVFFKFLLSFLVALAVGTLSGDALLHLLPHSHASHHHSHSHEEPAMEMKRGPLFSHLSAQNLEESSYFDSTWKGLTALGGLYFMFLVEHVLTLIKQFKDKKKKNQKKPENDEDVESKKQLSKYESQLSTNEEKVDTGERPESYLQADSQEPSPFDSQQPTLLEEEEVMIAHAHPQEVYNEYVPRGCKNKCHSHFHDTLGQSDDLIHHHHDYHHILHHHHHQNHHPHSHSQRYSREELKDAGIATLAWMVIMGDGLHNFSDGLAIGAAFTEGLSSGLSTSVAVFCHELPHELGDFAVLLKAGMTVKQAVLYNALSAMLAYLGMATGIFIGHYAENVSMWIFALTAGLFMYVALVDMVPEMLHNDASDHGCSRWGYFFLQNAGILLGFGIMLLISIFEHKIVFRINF
The experiment can be described thus: FACS, HEK293/Rat_LIV-1 cells.

B1: 5D6B10 (antibody, V domains shown)
VH: QVQLKQSGPGLVQPSQSLSITCTVSGFSLTTYGIHWVRQSPGKGLEWLGVIWTGGTTDYNAAFISRLSISKDNSKSQVFFKMNSLQANDTAIYYCARGPSSYWGQGTLVTVSA
VL: DIVMTQSQKFMSTSVGDRVSVTCKASQNVDTNVVWYQQKPGQSPKALIHSASYRYSGVPDRFTGSGSGTDFTLTISNVQSEDLAEYFCQQYNNYPWTFGGGTKLEIK
With B1, the Top (MFI) with mouse LIV-1 (mouse) is 121 MFI; with rat LIV-1 (rat), 150 MFI.

The values are drawn from patent US20240325555A1.
